One molecule from article PMC9563779 (2022) can be followed below.

What is called koff is a measure of how fast the partners let go of each other. The low end stands for a long-lived complex, the high end for a short-lived complex.

For the test, the target named is extracellular domain of p95HER2 peptide with a poly-histidine-tag in the C-terminus (human). Briefly: SPR. (In general: Surface plasmon resonance follows binding to a sensor surface in real time, without labels.)

B1: Oslo-2 mAb (antibody, V domains shown)
VH: EVQILETGGGLVKPGGSLRLSCATSGFNFNDYFMNWVRQAPGKGLEWIAQIRNKNYNYATYFAESLEGRFTISRDDSKSSVYLQVNSLRAEDTALYYCTELRYDYWGQGVMVTVSS
VL: DIVMTQSPFSLAVSEGEMVTINCKSSQSLLSSGNQKNNLAWYQQKPGQSPKLLIYYASTRQSGVPDRFIGSGSGTDFTLTISDVQAEDLADYYCLQHYSSPYTFGAGTKLELK
In turn, B1 came in with a koff of 0.00893 s⁻¹.
